{"source": "paper PMC11098746", "about": "(2024)", "data": [{"target": "FGFR4 ectodomain (Homo sapiens, UniProt P22455)", "experiment": "AVEXIS normalised luminescence", "values": [{"binder": "13 (protein, bait human Fc-tagged dimer) YLSSENQKKTIATVHNNARTNTLKKNNANNNNANDIFGLSPSEVPNLIDDEEEYEILEGVKNNADLTRSTNIDHPSPSSTMIDLDNIITEISKLKKKKLKKEMNNKLEQQTNQNNNAIHHNNENEINTFTQNIKTNSNELKNQDSSNSLISTNSNTMDELLLYSTNSEDNLDISFGELQLYENSDEDTSDYEYVNEDYSVNHIFSNDAEESFNILEDVENIALSSSNRYQYSPIGPYKKKHTKVFENFKMTRNYDEFLKLYNLKDSSDNQEEYYELLAGEPFKLNSYYYRDVKYENVKKYIFKEIYDNIQNIATENKIIVSKKEELFFYFIKSLLKNNFICLSYEEEENLLSESKLLLEAMISKKIQ", "binding score": 1.16}, {"binder": "22 (protein, bait human Fc-tagged dimer) RGNQISKCVFYDKRNKDLKQVFYVPTNDVNMYKETIRKLLSREISLLEEPLNENSDSHNMANKKNVANFEEIKKNDENNNRKRKEMEEKLKYIEKYRNYAKGVLKNVEFKCENVDDLKSKVKCNLCVYTEIVNNKHIRQGQIIQIFMNECMYGFYYYDNINQYTQNNEYNNKALKDYNSAQKLDDIYFNIAKDISEGNVNGINFFKQQSSKYHPVCYVTE", "binding score": 0.879}, {"binder": "19 (protein, bait human Fc-tagged dimer) KNSDTKNNAYNDYYNTYLSKIHSFKAPFNVENLENGWNVDYSSVSTNKHVVLIPSIYNRRGVLYNKNPINSDNFIIEFNFFMERKYYKEKIDEKYYKDEKNDVHEIVYKTNSDDNLATSNKANNKEQKQIKRNGFALWILKDPFVIKEAGSNVNLVLQEEEYNIFGYKNRFNGIGILFQLKKSTNKANNKANNNNNYYYYNNYNDILNVAIILNNGDKSINSDDFTIFKNIPIDMIMINNLIHTKIICNKKEIIIAFYYPKSNNYINTLIMKNNIATENYIAFTSFNYKEDDNKNIDYNDVNNKYYENQNGYLPTFVGIKQVLTFNLNNNNNNNNNININEANINNNNYNNNNNNDNNKINYDQNYNKDISANDINAAFNDVLNNINPEKNTINQAIDVLNSITKLLQKFMNHQINSEKKLLQNINILNEKLQFVQTELKVIKKNLANQAEEPKNLQKMFSTELTGLKNLFHTHTQHHKKNIEDITNKLTKKIERNNELKILTEKAQKLEQIINK", "binding score": 1.47}, {"binder": "85 (protein, bait human Fc-tagged dimer) VKERNNGFPKRGEGRYLFGRNQMKSQDIEKNNKELSNKMDTQDSKQYITYLYHSSICQYCSKVTSMLENNDNVEIIKFKENNKIEDFGKFTKPIVVLLKNINKENSLERSIFYEELKRKGKKVQVPALEVNNIILFESDEIIKFYKKLLQKVSNDDKSSLQNRGNIKNDQKKNNADYDNDYDNDDNNDDNDDDDDNNYNNNNDDGYDYHTS", "binding score": 1.22}, {"binder": "7 (protein, bait human Fc-tagged dimer) GIISGRINIAAEFHINIFVKDYFKKKKLTFVNFVSLCPKGFNIENNKCIPCPIGLYYSNSKSINQCIPCENYRKHSTTLYNSAKSKTECLCKPGYFLKDKRCVKCVAGFYKDQIGNFKCQGTCENTKMSIEVGAKNYEELKCTCKDGYFTEKKKKECIPCPFGNYCIYNPKVKYKADIIRCKNNKLTLHRGSKSPNDCLCSQGYYHDYKMDECELCNYDQYKSHISNDPCVPFISKSLVNQEYLINEPYFQYTNIYIKQTSNIIFAPKKGSKMFHEATLCETGYSYSMNKAICSICRYNNYCLGLDHSSIICPKNSITIKLKSVSALDCLCIKGYGRIIINTNQAFTISCIPCPYNTFQPHHSYGKCIPCPPHTFTKITGATSITECIPKMGYYNIAFEYIYEYSKQQMLNSIPHFIQYYHYFLKNQYEHFA", "binding score": 0.976}, {"binder": "24 (protein, bait human Fc-tagged dimer) FKGNYGEANFAFFQATPASHIEEPQKTESTDAQSNIAQNEEINNAKPLQENIANNQQNSNEQQNNNEQQNNIEQQNNNIQQNNIDTSISHVPNDAIKNPIDNSNIANLDKSNDANNVIKHEENNQAKENNLETIKHTEPLTNQNTNEVKINDHNEHEKNTEENKIEEQYNNINHHSHDINKNQAINNNMNNENADKNVPHLDQSAMSNEKHINEHTTNHPIESHTGENNHDKINEPIPIEHATTPTNEPIPIEHAATPTNEPIPIEHAATPTNEPIHIEHVATPANEPTHSEHATTTTNEPIHIEHAATPTNEHIHNEHATTTTNEPTHNEHAATITHEPTHNEHTTTPTNEPIHNEHATTPTNEPIPIEHIATPANEPTHNEHATTTTNEPTHNEHTTTPTNEPIHNEHATTPTNEPIPIEHIATPANEPTHNEHATTTTNEPTHNEHATTTTNEPTHNEHATTTTNEPIHNEHATATTNEATHNEHATTTTNEPTHNEHSTTPTNEATHSENAATSTNEQHSHDQNTEVHPNDKLALVPFQGIKNPIPSNEAQPIISFPNEDDNHAQNEGSINAPSEGEHNNADNKEGPIITPLEGEQAGTAHKEDVTHKHMVGEHVPPQKTHHGPIITPVGGNHVPPQTHHAHIITPVGGEHAHGQGNNDATYVTMNTDESSSSDTKGEHSNLRSYNKNMNNNHAQRDQYDSDTLNSEGSDDAYSSMQQNFEKNGIDSFKGKGLHVSLRERIIIEIMESAKNGIDGLLKLKDSKDSGKLFMEALEKLNINMKDLKKDKNLISLEVYDKILSTMFKILTEMSFYEDSKFYETLGIKKDILNQALKDIKIKMLRKLGVSYSRLPPIIKHTEGKCAIKDIIISISSKELAQRMAIMFTKWLAPDEYGAVVDYENNVELNVLCSGAPILIQQWKYYQNMLGFEEDKDHAYLGLIDELLVMNKRYSQNKDYVETLEKIKKSKVFKHCTKIMRIGGKVSSVPFNYENVKKPSSSIIGSLGNLIKANIATYYKATAQRINSYFHYTEKKSKKSSPLKIISVCTLLHLTDMLYKCSDENSNGVMDLYNLQLNTLNMKGKMVLQYLVHLKFLTQEKKNQLKEICEPQNGLIDETLTKMLILLSTDSHELLSHELENKGFDEDYIQDEIKNINEADNNIRDKEEDDAEKMIFDDL", "binding score": 1}, {"binder": "26 (protein, bait human Fc-tagged dimer) KCIRLNNRAIYKNKYKNNVHIGTNENIRSIEKYSNVLCNSILCKNDKISSFINQRKNVDDDDESENDDMYESTTAGSSSETDNEADEEENDASDNNNADEEQIENSNNNNADEEQNDASSNDNNDEENEEQDDVMDNDQNDKKIKHSFNLANEAKHTKEERVKEEKKLKIYDFINDKEKRLNFNGDQKDEDNEENDDKDENTLENRNIISKHTSVFPGLYFIGIGYNLLFGNPLGEADSLIDPGYRAQIYLMEWALSKEGIANDLSTLQPVNGWIRKENACSRVESITECSSISDYTKSLSAEAKVSGSYWGIASFSASTGYSSFLHEVTKRSKKTFLVKSNCVKYTIGLPPYIPWDKTTAYKNAVNELPAVFTGLDKESECPSDVYEENKAKSNCENVALWMKFFDIYGTHIIYESQLGGKITKIINVATSSIEQMKKNGVSVKAKIQAQFGFGSAGGSTDVNSANSAANDEQSYDMNEQLIVIGGNPIKDVTKEENLFEWSKTVTNHPMPINIKLTPISDSFDSDDLKESYDKAIIYYSRLYGLSPHDTMQKDDKDIIKILTNADTVTKNSAPPINAQCPHGKVVMFGFSLKQNFWDNTNALKGYNIEVCEAGSNSCTSKQGSSNKYDTSYLYMECGDQPLPFSEQVISESTSTYNTVKCPNDYSILLGFGISSSSGRINSAEYVYSTPCIPGMKSCSLNMNNDNQKSYIYVLCVDTTIWSGVNNLALVALDGAHGKVNRAKKYSDGELVGTCPLDGTVLTGFKVEFHTSSPYVQTPFEKCAKSLKACSVHGSGHAIGIQNFKSLFIYMLCKNNK", "binding score": 0.914}, {"binder": "21 (protein, bait human Fc-tagged dimer) SPGNDNNNVNNDGVVHVLSKNIDVKNLQGTFYEIATNAADKIFPGLACRCTKYEFSGLKRDGNLGYVLINFACARNFIFGEKKSEMTFKLILNKPLDENTATVEEFNAAIYLVQGNQQILLNGNINIIYAELNEQNEFEHLILGGQKSIEPMIIMSKYRTVLLDTYNKLINSLYLAGYEPSLLTWPFIIQTDQTFCD", "binding score": 1.31}]}]}
